test system: MS2 coat protein; experiment: apparent KD of MS2 coat protein, switch ON state; designed switch direction (-1 OFF switch, 1 ON switch): 1; higher = weaker reporter binding; details: FMN input: 0 or 200 uM; Eterna round: R93 (includes R88 designs)
Procedure, shortened: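 Values are apparent KD, taken as the median for each design of fits to normalised binding curves from individual clusters. The designed RNA switches were transcribed on-chip from Illumina sequencing clusters and exposed to SNAP-549-labelled MS2 coat protein at twofold increasing amounts from 0.7 or 1.5 nM to 3 µM. Titration used 100 mM Tris-HCl pH 7.5, 80 mM KCl and 4 mM MgCl2, without or with constant ligand.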

Point of comparison: “AAAGACACAGUGCAGGAUAUGGUAAUAGUCACAUGAGGAUCACCCAUGUUCUUUUAUAAGAACGAUCAGAAGGGCGGUGAAAAAA [SameState2 Malc#12]”, “apparent KD of MS2 coat protein” value 111 nM. Against it:
- AAUACACAUGGUCAGGAUAUCGCAGCUAGGACAUGAGGAUCACCCAUGUCGUACGUAAAAGUAAAUGAGAAGGGACAGGGUGACC [JR_SS002_Sub407] — 2.9-fold lower, 37.8 nM
- GAAAAACAUGAGGAUCACCCAUGUGAGAAUAUGGGAGGAUAUACAAAGACGAAAGUCAAAGUAGAAGGCCUAAAAG [Mat - Same State 1 - Eli mod - D6] — 4-fold lower, 27.6 nM
- GAAAAACAUGAGGAUCACCCAUGUAGAAAUAUGGAAGGAUAUACGAAGACGAAAGUCAAAGUAGAAGGUCUAAAAG [Garnet 96] — 6.5-fold lower, 17 nM
- AUAAAUAAAAUCGAGGAUAUCCAAAAAAAAACAUGAGGAUCACCCAUGUAAAAGAAAAUAAUAUGGGAGAAGGCGAAAAAUAAAU [SS2 M 5] — 3-fold lower, 36.8 nM
- AAUAUAUUAAGUGAGGAUAUCAAGAAAAAAACAUGAGGAUCACCCAUGUGGGAAACACGGUAGGGUGAGAAGGUACUUAAUAUAU [Samwise Clockwise 20 - Jieux - Same State 2] — 4.5-fold higher, 504 nM
- UAUCAUUACACGAAGGAUAUCGAUAAUUGAACAUGAGGAUCACCCAUGUGAUAUAUUUUACAGUUCGAGAAGGUCGAGGGUGAAG [JR_SS002_Sub705] — 6.7-fold lower, 16.6 nM
- GAAAAACAUGAGGAUCACCCAUGUGAGAAUAUGGGAGGAUAUACGAAGACGAGAGUCGAAGUAGAAGGCCUAAAAG [Mat - Same State 1 - Eli mod - 31] — 3.9-fold lower, 28.2 nM
- AAAAUACAUGAGGAUCACCCAUGUGAGAAAAACGCAGGAUAUGCAAAAAAAAAAAAAAAAGCAGAAGGGUGAAAAA [SameState1-I] — 2-fold lower, 54.8 nM
- AAAAGACAUGAGGAUCACCCAUGUCUUCGGACAUGAGGAUAUGUACAGACUUCGGUCUGUACAGAAGGCAUGAAAA [SS1 - 1065] — 6-fold lower, 18.5 nM
- GUAAAACAUGAGGAUCACCCAUGUAGAAAUAUGGGAGGAUAUACGAAGACGAAAGUCAAAGUAGAAGGCCUAAAGU [Mat - Same State 1 - Eli mod - D111] — 4.3-fold lower, 26.1 nM
- GGGAGGAAGAGAGAGGAUAUCCAAAGGAAAACAUGAGGAUCACCCAUGUAAAAGGUAGGAAAUUGGGAGAAGGCUCAAAAGAGGA [salish99-ss2-039] — 3.5-fold lower, 31.3 nM
- ACGGCACAUGAGGAUCACCCAUGUGCCGAGAGGCGAGGAUAUCGAAAAAAAAAAAAAAAACGAGAAGGCGCGAGAA [SameState1NO] — 8.8-fold lower, 12.6 nM
- AUAUGGGCCCAUCAGGAUAUGUUCGGCGGAACAUGAGGAUCACCCAUGUGACAAAAGACGCCCACGCAGAAGGGAUUACAGGCAA [Anistera] — 5-fold lower, 22 nM
- GACGAACAUGAGGAUCACCCAUGUCAAAACGGACAAGGAUAUGUGUGGAAACCGUACUAUACAGAAGGUGUCUGUC [SS1 - 98] — 6.9-fold lower, 16.1 nM
- AGAAAUAAACCUCAGGAUAUGGGUAAGAAAACAUGAGGAUCACCCAUGUAAAAGAAAAUAAAAAACCAGAAGGGAGAAAAUAAAG [Reversing G segment in JL's winner (80%) Variant 2] — 3.5-fold lower, 31.3 nM
- AAGAUACAUGAGGAUCACCCAUGUUAAGAGAGAUGAGGAUAUCCGAAUUAAUUAAAUUAAGGAGAAGGCAUGAAAA [LROPPY Same State 1 - v02_deltaG=2.1] — 6.1-fold lower, 18.2 nM
- AGACAUAACAGAGAGGAUAUCCAAAAGAAAACAUGAGGAUCACCCAUGUGAAAGAAAAUAAAAUGGGAGAAGGCUCACAUACAGA [Topaz 37] — 5.5-fold lower, 20 nM
- AGAAAUAAAAGAGAGGAUAUCCAAAACAAAACAUGAGGAUCACCCAUGUGAAAGAAAAUAAAAUGGGAGAAGGCUCAAAAUAAAG [Topaz 8] — 13-fold lower, 8.35 nM
- AAGAAACAUGAGGAUCACCCAUGUAAAUUCGAGAGAGGAUAUCGUACAUGGAAGAUUCAACGAGAAGGCUCUAGAA [Same State 1.1 (Pariah 3, G boost at 31)] — 5.3-fold lower, 21 nM
- GCUCCAGCUAGCAAGGAUAUGUAGGAUGCUACAUGAGGAUCACCCAUGUGCUGAAAUAAGUCCCGGCAGAAGGUGUGACUGGAGC [Quleorla] — 8-fold lower, 13.8 nM
- AAAAUAAAAAGGCAGGAUAUCCAAAAUAAAACAUGAGGAUCACCCAUGUAAAUAAAAAUAAAGUGGGAGAAGGGUUAAAAAUAAAA [High Roller3] — 3.4-fold lower, 32.5 nM
- CGAGAACAUGAGGAUCACCCAUGUAAUGAAUGGUCAGGAUAUGGAGAUAGAUGACAAGCGCCAGAAGGGACAUCAG [JR_SS001_Sub1001] — 2.6-fold lower, 42.9 nM
- CGGAGACAUGAGGAUCACCCAUGUGAGAAGAGGCGAGGAUAUCGAAAGAAAGAAGAGAAACGAGAAGGCGCGAGCG [salish99-SS1-076] — 3.4-fold lower, 32.8 nM
- AAGAAACAUGAGGAUCACCCAUGUGAGAUAAACACAGGAUAUGCGAAAAUAAACAAAUAAGCAGAAGGGUGAAGAA [Mat - Same State 1 - Tesla mod - 68] — 3.4-fold lower, 32.9 nM
- AAAUAAAUGACUAAGGAUAUAUCAGAGAAAACAUGAGGAUCACCCAUGUAAUAAUAAAAAGGGUGAUAGAAGGUAGUCAACAAACA [Pariah 4 (MS2 Riboswitches - Same State 2)] — 4.3-fold lower, 26 nM
- AUAACACAUGAGGAUCACCCAUGUAGAAACAAGUCAGGAUAUGCGACCUCAUGAAAUAAAGCAGAAGGGACACUAA [SS 1 Tesla 5] — 3.5-fold lower, 31.5 nM
- AAGAAACAUGAGGAUCACCCAUGUAAGAUAAACACAGGAUAUGCGAAAAUAAACAAAGAAGCAGAAGGGUGAAGAA [Mat - Same State 1 - Tesla mod - 62] — 8.2-fold lower, 13.5 nM
- AAAAAACAUGAGGAUCACCCAUGUCUUUUGACAUGAGGAUAUGUACAGACUUCGGUCUGUACAGAAGGCAUGAAAA [SS1 - 1029] — 2.3-fold lower, 48.4 nM
- CGGAGACAUGAGGAUCACCCAUGUGAGAAGAGGCGAGGAUAUCGAAAGAAAGAAGAGAAACGAGAAGGCGCGAGGC [salish99-SS1-079] — 5.3-fold lower, 21.1 nM
- AGAAAACAUGAGGAUCACCCAUGUCAAAUAAGUCAAGGAUAUGGGACUCCGCGAGAGUCGCCAGAAGGUGAGAAAA [Aatrara] — 6.3-fold lower, 17.5 nM
- GAAAAACAUGAGGAUCACCCAUGUAAGAUAAACACAGGAUAUGCGAAAAGAAAGAAAGAAGCAGAAGGGUGAAGAA [Mat - Same State 1 - Tesla mod - 40] — 9-fold lower, 12.3 nM
- AAAUAAAAAAGGGAGGAUAUUCAUGUGAAAACAUGAGGAUCACCCAUGUAAAAAAAUAAAAAUAAAAAGAAGGAAAAAUAAAAAA [SS2: 80 No MS2] — 17-fold lower, 6.62 nM
- GGCUGCGUUGUGAAGGAUAUCCGCGUCUGGACAUGAGGAUCACCCAUGUAUACUUGGAUCGUGCAGGAGAAGGUCAAGGGUGAUU [JR_SS002_Sub1211] — within 1.5-fold, 130 nM
- AAGAAACAUGAGGAUCACCCAUGUAAGAUAAACACAGGAUAUGCGAAAAGAAAGAAAGAAGCAGAAGGGUGAAGAA [Mat - Same State 1 - Tesla mod - 39] — 6.4-fold lower, 17.4 nM
- GGGAGACAUGAGGAUCACCCAUGUGAGAAGAGGCGAGGAUAUCGAAAGAAAGAAGAGAAACGAGAAGGCGCGAGCG [salish99-SS1-060] — 3.4-fold lower, 32.5 nM
- AAAUAACAUGAGGAUCACCCAUGUUACAACUUUACAGGAUAUGUGGGUGAAAAUAGCAUGACAGAAGGGUACAGUA [SameState1 Malc#35] — 1.5-fold higher, 171 nM
- AGUCCACAUGAGGAUCACCCAUGUCUGGAGAAGACAGGAUAUAAGGAAAAAAAAAAAAACUUAGAAGGGUCAAAAA [Bexeusisus] — 4.1-fold lower, 26.8 nM
- CGGGAAGAGAGAGAGGAUAUCCAAAGGAAAACAUGAGGAUCACCCAUGUAGAAGGUAGGAAAUUGGGAGAAGGCUCAAGAGAGAG [salish99-ss2-134] — 3-fold lower, 37.2 nM
- AUAAUAAUAAGAUAGGAUAUACUAAAGUAAACAUGAGGAUCACCCAUGUAAAGAAAAAAACUCAUGUAGAAGGGUCAUAAAUAAA [moonwalk 1] — 2.4-fold lower, 46.3 nM
- GGAUAUAUACAGGAGGAUAUGAGAACAAAGACAUGAGGAUCACCCAUGUACAAAAGGUGGAACAAUCAGAAGGUCUAAACAACAAA [Thing 1 and Thing 2] — 1.8-fold lower, 61 nM
- UUUAAUUACACGAAGGAUAUCGAUUUUCAGACAUGAGGAUCACCCAUGUAGUAGAUUUCCCUGUUCGAGAAGGUCGCGGGUGAAC [JR_SS002_Sub602] — 2.8-fold lower, 39.3 nM
